Assay results taken from article PMC12774657, “Multimodal bHLH-PAS DNA binding controls specificity and drives obesity”.

Molecular target: SIM1 bHLH-PASA-PASB;ARNT2 bHLH-PASA-PASB (;, UniProt P81133;Q9HBZ2 1-348;1-455, |)
Assay: EMSA; preferred over HIF2a probe; EMSA: 10 nM probe, 20 mM Tris pH 8.0, 250 mM NaCl, 16 ug/ml salmon sperm ssDNA, 30 ug/ml BSA, 1.25 mM MgCl2, 6% glycerol, 10 mM DTT, room temperature 30 min, 5-7% native PAGE
Conditions: protein: recombinant;recombinant; tags: 6xHis-TEV, tag removed;untagged; copies: 1;1; label: FAM (upper strand); blunt

Sequence of SIM1 bHLH-PASA-PASB;ARNT2 bHLH-PASA-PASB (P81133 1-348, chain 1 of 2): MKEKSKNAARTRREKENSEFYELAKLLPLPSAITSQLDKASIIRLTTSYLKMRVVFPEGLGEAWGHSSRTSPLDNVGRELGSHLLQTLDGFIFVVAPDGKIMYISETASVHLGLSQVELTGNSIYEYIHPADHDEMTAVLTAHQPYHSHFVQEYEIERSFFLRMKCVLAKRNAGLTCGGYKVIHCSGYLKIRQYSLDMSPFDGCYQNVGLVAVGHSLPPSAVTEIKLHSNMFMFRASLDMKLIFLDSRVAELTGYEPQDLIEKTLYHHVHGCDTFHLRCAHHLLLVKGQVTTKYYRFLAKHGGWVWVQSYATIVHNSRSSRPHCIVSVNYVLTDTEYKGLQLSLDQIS
Sequence of SIM1 bHLH-PASA-PASB;ARNT2 bHLH-PASA-PASB (Q9HBZ2 1-455, chain 2 of 2): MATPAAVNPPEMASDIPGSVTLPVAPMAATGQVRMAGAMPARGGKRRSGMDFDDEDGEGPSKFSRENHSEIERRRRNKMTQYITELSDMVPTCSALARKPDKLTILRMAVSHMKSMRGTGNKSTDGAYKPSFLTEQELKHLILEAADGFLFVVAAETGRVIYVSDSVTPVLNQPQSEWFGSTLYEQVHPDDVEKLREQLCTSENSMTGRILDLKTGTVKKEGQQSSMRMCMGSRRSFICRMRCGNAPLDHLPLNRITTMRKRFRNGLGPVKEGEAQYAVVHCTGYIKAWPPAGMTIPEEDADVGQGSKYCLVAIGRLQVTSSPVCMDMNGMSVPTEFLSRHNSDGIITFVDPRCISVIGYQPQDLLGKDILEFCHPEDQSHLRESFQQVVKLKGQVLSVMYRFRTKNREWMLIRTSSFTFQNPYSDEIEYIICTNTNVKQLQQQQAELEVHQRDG

B1: SRE 22mer (top SIM1/ARNT2 probe) (dsDNA)
DNA 1: AAAAGGTACGTGACCAAAAAGA
DNA 2: TCTTTTTGGTCACGTACCTTTT
B1: binds.
